The target in one assay is T1, BRD4 (human, UniProt O60885 1-1362).
T1 construct: One entry covers endogenous, Flag-tagged and HA-tagged full-length BRD4; also called FLAG-BRD4; Flag-BRD4
In words: co-IP from 293T cells transfected with Flag-tagged USPs and HA-BRD4. As for the experimental part: (§1) To immunoprecipitate the ectopically expressed FLAG-tagged proteins, transfected cells were lysed 24 hours post-transfection in BC100 buffer. The whole-cell lysates were immunoprecipitated with the monoclonal anti-FLAG antibody-conjugated M2 agarose beads (Sigma-Aldrich) at 4° C. overnight. After three washes with lysis buffer, followed by two washes with BC100 buffer, the bound proteins were eluted using FLAG-Peptide (Sigma-Aldrich) prepared in BC100 for 3 hours at 4° C. The eluted protein sample was resolved by SDS-PAGE. To immunoprecipitate the endogenous proteins, cells were lysed with 1× cell lysis buffer (Cell Signaling Technology), and the lysate was centrifuged. The supernatant was precleared with protein A/G beads (Sigma-Aldrich) and incubated with the indicated antibody and protein A/G beads at 4° C. overnight. Beads were washed five times with lysis buffer and resuspended in sample buffer and analyzed by SDS-PAGE.

The next assay addresses NCOR2 (human, UniProt Q9Y618 1-2514, limits assumed). In words: reciprocal co-IP of endogenous proteins in C4-2 cells. As for the experimental part: as §1

Sequence of NCOR2 (Q9Y618 whole entry): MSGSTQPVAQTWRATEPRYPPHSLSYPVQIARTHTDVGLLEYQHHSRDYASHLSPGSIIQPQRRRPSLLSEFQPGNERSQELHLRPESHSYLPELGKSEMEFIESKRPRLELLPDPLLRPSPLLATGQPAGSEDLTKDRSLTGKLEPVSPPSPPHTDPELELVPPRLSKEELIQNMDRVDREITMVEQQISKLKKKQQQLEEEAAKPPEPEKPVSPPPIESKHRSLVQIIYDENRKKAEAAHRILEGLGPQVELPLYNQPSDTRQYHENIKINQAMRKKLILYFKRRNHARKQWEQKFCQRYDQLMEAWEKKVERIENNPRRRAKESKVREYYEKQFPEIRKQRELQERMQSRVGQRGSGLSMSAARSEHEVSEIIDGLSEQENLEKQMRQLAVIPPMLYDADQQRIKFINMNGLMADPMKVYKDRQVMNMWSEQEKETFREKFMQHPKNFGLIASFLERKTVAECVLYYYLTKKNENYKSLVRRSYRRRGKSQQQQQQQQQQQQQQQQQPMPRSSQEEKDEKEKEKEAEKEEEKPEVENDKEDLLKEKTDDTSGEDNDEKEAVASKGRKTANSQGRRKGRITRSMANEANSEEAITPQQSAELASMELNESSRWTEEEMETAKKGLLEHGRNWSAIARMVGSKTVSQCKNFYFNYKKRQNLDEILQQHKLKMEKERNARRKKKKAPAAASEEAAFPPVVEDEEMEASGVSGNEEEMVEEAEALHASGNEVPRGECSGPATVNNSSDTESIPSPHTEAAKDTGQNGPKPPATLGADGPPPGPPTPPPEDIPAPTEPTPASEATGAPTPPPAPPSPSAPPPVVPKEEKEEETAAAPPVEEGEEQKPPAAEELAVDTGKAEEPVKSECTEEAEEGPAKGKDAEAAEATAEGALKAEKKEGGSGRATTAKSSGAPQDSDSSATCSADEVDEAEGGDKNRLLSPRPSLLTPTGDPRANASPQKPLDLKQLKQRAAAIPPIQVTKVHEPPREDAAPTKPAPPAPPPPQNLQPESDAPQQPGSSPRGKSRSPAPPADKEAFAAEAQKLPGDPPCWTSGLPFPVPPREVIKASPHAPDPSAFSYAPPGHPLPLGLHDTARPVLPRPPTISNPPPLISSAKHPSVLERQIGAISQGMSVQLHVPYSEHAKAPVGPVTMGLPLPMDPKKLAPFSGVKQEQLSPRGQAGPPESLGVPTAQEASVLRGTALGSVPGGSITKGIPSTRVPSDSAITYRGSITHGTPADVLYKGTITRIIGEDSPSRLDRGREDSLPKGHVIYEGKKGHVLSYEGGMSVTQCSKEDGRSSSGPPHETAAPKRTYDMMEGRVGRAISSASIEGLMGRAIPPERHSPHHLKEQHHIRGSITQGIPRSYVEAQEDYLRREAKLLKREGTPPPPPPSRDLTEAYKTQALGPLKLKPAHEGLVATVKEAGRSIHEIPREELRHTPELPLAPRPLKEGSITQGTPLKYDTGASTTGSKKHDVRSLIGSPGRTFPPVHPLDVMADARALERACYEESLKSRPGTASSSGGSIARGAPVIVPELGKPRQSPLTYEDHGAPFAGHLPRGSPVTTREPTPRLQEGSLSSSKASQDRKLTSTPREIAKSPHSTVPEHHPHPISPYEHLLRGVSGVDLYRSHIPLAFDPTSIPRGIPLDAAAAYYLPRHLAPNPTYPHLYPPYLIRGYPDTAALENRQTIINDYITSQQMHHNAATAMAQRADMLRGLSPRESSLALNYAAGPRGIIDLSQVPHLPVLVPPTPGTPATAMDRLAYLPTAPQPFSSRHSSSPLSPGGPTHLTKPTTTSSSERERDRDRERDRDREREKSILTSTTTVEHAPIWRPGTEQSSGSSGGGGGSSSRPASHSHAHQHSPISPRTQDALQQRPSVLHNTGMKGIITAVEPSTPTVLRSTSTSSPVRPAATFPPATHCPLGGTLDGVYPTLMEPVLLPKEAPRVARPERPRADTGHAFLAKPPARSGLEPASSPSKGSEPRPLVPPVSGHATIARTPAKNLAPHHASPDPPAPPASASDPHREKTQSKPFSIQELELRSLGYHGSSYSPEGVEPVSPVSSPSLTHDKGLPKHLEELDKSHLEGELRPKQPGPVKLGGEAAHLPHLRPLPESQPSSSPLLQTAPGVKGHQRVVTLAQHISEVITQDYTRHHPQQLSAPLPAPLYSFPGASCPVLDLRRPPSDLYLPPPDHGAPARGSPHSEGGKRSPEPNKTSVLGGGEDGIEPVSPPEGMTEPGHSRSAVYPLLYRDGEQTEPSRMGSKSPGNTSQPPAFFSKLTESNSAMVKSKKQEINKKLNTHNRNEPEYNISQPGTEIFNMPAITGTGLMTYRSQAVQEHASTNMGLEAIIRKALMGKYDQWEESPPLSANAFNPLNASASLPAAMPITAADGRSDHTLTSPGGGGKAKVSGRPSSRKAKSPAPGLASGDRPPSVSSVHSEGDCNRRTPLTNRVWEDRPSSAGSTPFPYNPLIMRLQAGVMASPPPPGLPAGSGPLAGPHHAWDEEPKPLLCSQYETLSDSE

B1: Flag-USP13 (enzyme, UniProt Q92995 1-863, looked up)
chain: MQRRGALFGMPGGSGGRKMAAGDIGELLVPHMPTIRVPRSGDRVYKNECAFSYDSPNSEGGLYVCMNTFLAFGREHVERHFRKTGQSVYMHLKRHVREKVRGASGGALPKRRNSKIFLDLDTDDDLNSDDYEYEDEAKLVIFPDHYEIALPNIEELPALVTIACDAVLSSKSPYRKQDPDTWENELPVSKYANNLTQLDNGVRIPPSGWKCARCDLRENLWLNLTDGSVLCGKWFFDSSGGNGHALEHYRDMGYPLAVKLGTITPDGADVYSFQEEEPVLDPHLAKHLAHFGIDMLHMHGTENGLQDNDIKLRVSEWEVIQESGTKLKPMYGPGYTGLKNLGNSCYLSSVMQAIFSIPEFQRAYVGNLPRIFDYSPLDPTQDFNTQMTKLGHGLLSGQYSKPPVKSELIEQVMKEEHKPQQNGISPRMFKAFVSKSHPEFSSNRQQDAQEFFLHLVNLVERNRIGSENPSDVFRFLVEERIQCCQTRKVRYTERVDYLMQLPVAMEAATNKDELIAYELTRREAEANRRPLPELVRAKIPFSACLQAFSEPENVDDFWSSALQAKSAGVKTSRFASFPEYLVVQIKKFTFGLDWVPKKFDVSIDMPDLLDINHLRARGLQPGEEELPDISPPIVIPDDSKDRLMNQLIDPSDIDESSVMQLAEMGFPLEACRKAVYFTGNMGAEVAFNWIIVHMEEPDFAEPLTMPGYGGAASAGASVFGASGLDNQPPEEIVAIITSMGFQRNQAIQALRATNNNLERALDWIFSHPEFEEDSDFVIEMENNANANIISEAKPEGPRVKDGSGTYELFAFISHMGTSTMSGHYICHIKKEGRWVIYNDHKVCASERPPKDLGYMYFYRRIPS
notes: not shown: Flag tag
B1: the binding result in the assay with BRD4 is recorded as “no binding”.

B2: Flag-USP49 (enzyme, UniProt Q70CQ1 1-688, looked up)
chain: MDRCKHVGRLRLAQDHSILNPQKWCCLECATTESVWACLKCSHVACGRYIEDHALKHFEETGHPLAMEVRDLYVFCYLCKDYVLNDNPEGDLKLLRSSLLAVRGQKQDTPVRRGRTLRSMASGEDVVLPQRAPQGQPQMLTALWYRRQRLLARTLRLWFEKSSRGQAKLEQRRQEEALERKKEEARRRRREVKRRLLEELASTPPRKSARLLLHTPRDAGPAASRPAALPTSRRVPAATLKLRRQPAMAPGVTGLRNLGNTCYMNSILQVLSHLQKFRECFLNLDPSKTEHLFPKATNGKTQLSGKPTNSSATELSLRNDRAEACEREGFCWNGRASISRSLELIQNKEPSSKHISLCRELHTLFRVMWSGKWALVSPFAMLHSVWSLIPAFRGYDQQDAQEFLCELLHKVQQELESEGTTRRILIPFSQRKLTKQVLKVVNTIFHGQLLSQVTCISCNYKSNTIEPFWDLSLEFPERYHCIEKGFVPLNQTECLLTEMLAKFTETEALEGRIYACDQCNSKRRKSNPKPLVLSEARKQLMIYRLPQVLRLHLKRFRWSGRNHREKIGVHVVFDQVLTMEPYCCRDMLSSLDKETFAYDLSAVVMHHGKGFGSGHYTAYCYNTEGGFWVHCNDSKLNVCSVEEVCKTQAYILFYTQRTVQGNARISETHLQAQVQSSNNDEGRPQTFS
notes: not shown: Flag tag
With B2, the binding result with BRD4 is recorded as “no binding”.

B3: HDAC10 (enzyme, human, UniProt Q969S8 1-669, looked up)
chain: MGTALVYHEDMTATRLLWDDPECEIERPERLTAALDRLRQRGLEQRCLRLSAREASEEELGLVHSPEYVSLVRETQVLGKEELQALSGQFDAIYFHPSTFHCARLAAGAGLQLVDAVLTGAVQNGLALVRPPGHHGQRAAANGFCVFNNVAIAAAHAKQKHGLHRILVVDWDVHHGQGIQYLFEDDPSVLYFSWHRYEHGRFWPFLRESDADAVGRGQGLGFTVNLPWNQVGMGNADYVAAFLHLLLPLAFEFDPELVLVSAGFDSAIGDPEGQMQATPECFAHLTQLLQVLAGGRVCAVLEGGYHLESLAESVCMTVQTLLGDPAPPLSGPMAPCQSALESIQSARAAQAPHWKSLQQQDVTAVPMSPSSHSPEGRPPPLLPGGPVCKAAASAPSSLLDQPCLCPAPSVRTAVALTTPDITLVLPPDVIQQEASALREETEAWARPHESLAREEALTALGKLLYLLDGMLDGQVNSGIAATPASAAAATLDVAVRRGLSHGAQRLLCVALGQLDRPPDLAHDGRSLWLNIRGKEAAALSMFHVSTPLPVMTGGFLSCILGLVLPLAYGFQPDLVLVALGPGHGLQGPHAALLAAMLRGLAGGRVLALLEENSTPQLAGILARVLNGEAPPSLGPSSVASPEDVQALMYLRGQLEPQWKMLQCHPHLVA
Consider B3, for which the binding result with NCOR2 was “binds”.

B4: Flag-USP15 (enzyme, UniProt Q9Y4E8 1-981, looked up)
chain: MAEGGAADLDTQRSDIATLLKTSLRKGDTWYLVDSRWFKQWKKYVGFDSWDKYQMGDQNVYPGPIDNSGLLKDGDAQSLKEHLIDELDYILLPTEGWNKLVSWYTLMEGQEPIARKVVEQGMFVKHCKVEVYLTELKLCENGNMNNVVTRRFSKADTIDTIEKEIRKIFSIPDEKETRLWNKYMSNTFEPLNKPDSTIQDAGLYQGQVLVIEQKNEDGTWPRGPSTPKSPGASNFSTLPKISPSSLSNNYNNMNNRNVKNSNYCLPSYTAYKNYDYSEPGRNNEQPGLCGLSNLGNTCFMNSAIQCLSNTPPLTEYFLNDKYQEELNFDNPLGMRGEIAKSYAELIKQMWSGKFSYVTPRAFKTQVGRFAPQFSGYQQQDCQELLAFLLDGLHEDLNRIRKKPYIQLKDADGRPDKVVAEEAWENHLKRNDSIIVDIFHGLFKSTLVCPECAKISVTFDPFCYLTLPLPMKKERTLEVYLVRMDPLTKPMQYKVVVPKIGNILDLCTALSALSGIPADKMIVTDIYNHRFHRIFAMDENLSSIMERDDIYVFEININRTEDTEHVIIPVCLREKFRHSSYTHHTGSSLFGQPFLMAVPRNNTEDKLYNLLLLRMCRYVKISTETEETEGSLHCCKDQNINGNGPNGIHEEGSPSEMETDEPDDESSQDQELPSENENSQSEDSVGGDNDSENGLCTEDTCKGQLTGHKKRLFTFQFNNLGNTDINYIKDDTRHIRFDDRQLRLDERSFLALDWDPDLKKRYFDENAAEDFEKHESVEYKPPKKPFVKLKDCIELFTTKEKLGAEDPWYCPNCKEHQQATKKLDLWSLPPVLVVHLKRFSYSRYMRDKLDTLVDFPINDLDMSEFLINPNAGPCRYNLIAVSNHYGGMGGGHYTAFAKNKDDGKWYYFDDSSVSTASEDQIVSKAAYVLFYQRQDTFSGTGFFPLDRETKGASAATGIPLESDEDSNDNDNDIENENCMHTN
notes: not shown: Flag tag
Turning to B4, the binding result with BRD4 is given as “no binding”.

B5: Flag-USP28 (enzyme, UniProt Q96RU2 1-1077, looked up)
chain: MTAELQQDDAAGAADGHGSSCQMLLNQLREITGIQDPSFLHEALKASNGDITQAVSLLTDERVKEPSQDTVATEPSEVEGSAANKEVLAKVIDLTHDNKDDLQAAIALSLLESPKIQADGRDLNRMHEATSAETKRSKRKRCEVWGENPNPNDWRRVDGWPVGLKNVGNTCWFSAVIQSLFQLPEFRRLVLSYSLPQNVLENCRSHTEKRNIMFMQELQYLFALMMGSNRKFVDPSAALDLLKGAFRSSEEQQQDVSEFTHKLLDWLEDAFQLAVNVNSPRNKSENPMVQLFYGTFLTEGVREGKPFCNNETFGQYPLQVNGYRNLDECLEGAMVEGDVELLPSDHSVKYGQERWFTKLPPVLTFELSRFEFNQSLGQPEKIHNKLEFPQIIYMDRYMYRSKELIRNKRECIRKLKEEIKILQQKLERYVKYGSGPARFPLPDMLKYVIEFASTKPASESCPPESDTHMTLPLSSVHCSVSDQTSKESTSTESSSQDVESTFSSPEDSLPKSKPLTSSRSSMEMPSQPAPRTVTDEEINFVKTCLQRWRSEIEQDIQDLKTCIASTTQTIEQMYCDPLLRQVPYRLHAVLVHEGQANAGHYWAYIYNQPRQSWLKYNDISVTESSWEEVERDSYGGLRNVSAYCLMYINDKLPYFNAEAAPTESDQMSEVEALSVELKHYIQEDNWRFEQEVEEWEEEQSCKIPQMESSTNSSSQDYSTSQEPSVASSHGVRCLSSEHAVIVKEQTAQAIANTARAYEKSGVEAALSEVMLSPAMQGVILAIAKARQTFDRDGSEAGLIKAFHEEYSRLYQLAKETPTSHSDPRLQHVLVYFFQNEAPKRVVERTLLEQFADKNLSYDERSISIMKVAQAKLKEIGPDDMNMEEYKKWHEDYSLFRKVSVYLLTGLELYQKGKYQEALSYLVYAYQSNAALLMKGPRRGVKESVIALYRRKCLLELNAKAASLFETNDDHSVTEGINVMNELIIPCIHLIINNDISKDDLDAIEVMRNHWCSYLGQDIAENLQLCLGEFLPRLLDPSAEIIVLKEPPTIRPNSPYDLCSRFAAVMESIQGVSTVTVK
notes: not shown: Flag tag
As to B5, in the assay with BRD4, the binding result is “no binding”.

(Values after patent publication US20220016130A1 (MAYO FOUNDATION FOR MEDICAL EDUCATION AND RESEARCH, published 2022).)
